We go through one substance from patent US20130171235A1.

For this assay, the target named is PTEN-long (endogenous human form, translated from the upstream CUG start site of PTEN mRNA) (Homo sapiens). Kind of assay: concanavalin A sepharose pulldown from HEK293 lysate, immunoblot. For orientation: Immunoblotting shows a protein as a band on a membrane.

For the substance “concanavalin A (lectin, on sepharose) (from UniProt P02866)”, the share of PTEN-long in the PTEN pulled down was found to be 50%.
